Laboratory results as given in paper PMC9721421, “DMSO-tolerant ornithine decarboxylase (ODC) tandem assay optimised for high-throughput screening” (Journal of Enzyme Inhibition and Medicinal Chemistry, 2022).

Molecular target: the molecule itself
Test: SEC; Superose 6 Increase 10/300 GL, 4 °C, 0.5 mL/min, running buffer 50 mM potassium pyrophosphate, 500 mM NaCl, 5% glycerol, 0.1% Tween 20, pH 7.5; elution compared with molecular weight standards; fractions checked by ODC tandem assay, Coomassie staining and western blot

B1: C-terminal Twin-Strep-tagged recombinant human ornithine decarboxylase (ODC) (enzyme, UniProt P11926 1-461, looked up)
chain: MNNFGNEEFDCHFLDEGFTAKDILDQKINEVSSSDDKDAFYVADLGDILKKHLRWLKALPRVTPFYAVKCNDSKAIVKTLAATGTGFDCASKTEIQLVQSLGVPPERIIYANPCKQVSQIKYAANNGVQMMTFDSEVELMKVARAHPKAKLVLRIATDDSKAVCRLSVKFGATLRTSRLLLERAKELNIDVVGVSFHVGSGCTDPETFVQAISDARCVFDMGAEVGFSMYLLDIGGGFPGSEDVKLKFEEITGVINPALDKYFPSDSGVRIIAEPGRYYVASAFTLAVNIIAKKIVLKEQTGSDDEDESSEQTFMYYVNDGVYGSFNCILYDHAHVKPLLQKRPKPDEKYYSSSIWGPTCDGLDRIVERCDLPEMHVGDWMLFENMGAYTVAAASTFNGFQRPTIYYVMSGPAWQLMQQFQNPDFPPEVEEQDASTLPVSCAWESGMKRHRAACASASINV
notes: Cloning sites may add a few linker residues between ODC and the 3C site; also called human ODC; ODC1; source: Expi293F cells, transiently transfected, purified (Strep-Tactin chromatography, size-exclusion chromatography); not shown: Avi tag (preceded by an HRV 3C protease site), C-terminal, kept; Twin-Strep, C-terminal, kept
stoichiometry N: 2
